Test results: paper PMC13098475

Target: traptavidin (streptavidin-variant), expressed and purified by IMAC (Streptomyces avidinii) (UniProt P22629)
Assay: native MS; native electrospray ionization mass spectrometry of the IMAC-purified proteins; oligomeric state of the protomers (tetramer), no cross-linker

percent of the protein that is tetrameric: 95%
stoichiometry N: 4
Substance: traptavidin (streptavidin-variant), expressed and purified by IMAC (from UniProt P22629 25-183) (natural protein)
